The target of this test is SARS-CoV-2 spike receptor-binding domain (RBD) protein (SARS-CoV-2, UniProt P0DTC2 319-541). The test can be described thus: BLI. For orientation: In BLI a coated tip is dipped into the sample, and binding shifts an interference pattern.

B1: AB-009620 (antibody, V domains shown)
VH: QITLKESGPTLVKPTQTLTLTCTFSGFSLSTSGVGVGWIRQPPGKALEWLALIYWDDDKRYSPSLKSRLTITKDTSKNQVVLTMTNMDPVDTATYYCAHHEVATVFDYWGQGTLVTVSS
VL: QSALTQPASVSGSPGQSITISCTGTSSDVGAYNYVSWYQQHPGKAPKLMIYEVSNRPSGVSNRFSGSKSGNTASLTISGLQAEDEADYYCSSYTSSSTVFGGGTKLTVL
With B1, the Kd worked out at 5.99 nM.

For orientation: Kd means the constant that tells how readily two partners part at equilibrium.
